The results in this text go back to article PMC4982137, “Mycobacterium tuberculosis H37Ra: a surrogate for the expression of conserved, multimeric proteins of M.tb H37Rv” (Microbial Cell Factories, 2016).

Counter-ions that a name gives are not always drawn.

In series [1] the target is MT-H-Eno (M.tb H37Rv Enolase) (Mycobacterium tuberculosis, UniProt P9WNL1).
Series [2] addresses T1, MT-PykA-H (M.tb H37Rv PykA) (Mycobacterium tuberculosis, UniProt P9WKE5).
T1 construct: gene pyk

Series [3] addresses transferrin-biotin (human) (UniProt P02787). Nature of the series: pull-down.
A further series relates to O=C[C@H](O)COP(=O)(O)O. The series is described as follows: purified protein. As to conditions: pH 8.5; 25.0 °C.
For series [4], the system named is NC(=O)c1ccc[n+]([C@@H]2O[C@H](COP(=O)(O)OP(=O)(O)OC[C@H]3O[C@@H](n4cnc5c(N)ncnc54)[C@H](O)[C@@H]3O)[C@@H](O)[C@H]2O)c1. Nature of the series: purified protein. As to conditions: pH 8.5; 25.0 °C.

MT-H-Eno (M.tb H37Rv Enolase), sequence (P9WNL1 whole entry, looked up): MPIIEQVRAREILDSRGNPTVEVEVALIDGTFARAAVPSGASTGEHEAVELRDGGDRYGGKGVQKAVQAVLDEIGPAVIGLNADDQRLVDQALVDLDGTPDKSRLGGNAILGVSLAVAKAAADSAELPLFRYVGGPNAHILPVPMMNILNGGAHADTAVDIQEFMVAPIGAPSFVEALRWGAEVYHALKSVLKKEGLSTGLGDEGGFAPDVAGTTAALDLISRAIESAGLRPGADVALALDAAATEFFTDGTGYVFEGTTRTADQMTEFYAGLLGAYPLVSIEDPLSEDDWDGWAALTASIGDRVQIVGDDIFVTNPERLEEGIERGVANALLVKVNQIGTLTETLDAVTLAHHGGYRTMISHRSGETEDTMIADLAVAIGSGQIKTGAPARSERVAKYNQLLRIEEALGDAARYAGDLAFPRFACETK
T1 sequence (P9WKE5 whole entry, looked up): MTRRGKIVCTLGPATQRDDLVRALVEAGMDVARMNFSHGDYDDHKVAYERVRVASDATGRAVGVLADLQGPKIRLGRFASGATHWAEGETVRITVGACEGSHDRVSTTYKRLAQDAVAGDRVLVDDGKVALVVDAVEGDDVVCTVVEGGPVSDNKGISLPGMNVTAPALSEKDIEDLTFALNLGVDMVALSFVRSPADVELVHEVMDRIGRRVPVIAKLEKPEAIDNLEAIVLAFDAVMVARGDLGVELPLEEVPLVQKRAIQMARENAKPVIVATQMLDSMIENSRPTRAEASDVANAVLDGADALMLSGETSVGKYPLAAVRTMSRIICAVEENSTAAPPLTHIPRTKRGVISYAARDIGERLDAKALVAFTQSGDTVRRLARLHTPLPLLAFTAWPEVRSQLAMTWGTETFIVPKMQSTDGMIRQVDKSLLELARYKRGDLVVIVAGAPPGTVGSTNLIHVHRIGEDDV
transferrin-biotin (human), sequence (P02787 20-698): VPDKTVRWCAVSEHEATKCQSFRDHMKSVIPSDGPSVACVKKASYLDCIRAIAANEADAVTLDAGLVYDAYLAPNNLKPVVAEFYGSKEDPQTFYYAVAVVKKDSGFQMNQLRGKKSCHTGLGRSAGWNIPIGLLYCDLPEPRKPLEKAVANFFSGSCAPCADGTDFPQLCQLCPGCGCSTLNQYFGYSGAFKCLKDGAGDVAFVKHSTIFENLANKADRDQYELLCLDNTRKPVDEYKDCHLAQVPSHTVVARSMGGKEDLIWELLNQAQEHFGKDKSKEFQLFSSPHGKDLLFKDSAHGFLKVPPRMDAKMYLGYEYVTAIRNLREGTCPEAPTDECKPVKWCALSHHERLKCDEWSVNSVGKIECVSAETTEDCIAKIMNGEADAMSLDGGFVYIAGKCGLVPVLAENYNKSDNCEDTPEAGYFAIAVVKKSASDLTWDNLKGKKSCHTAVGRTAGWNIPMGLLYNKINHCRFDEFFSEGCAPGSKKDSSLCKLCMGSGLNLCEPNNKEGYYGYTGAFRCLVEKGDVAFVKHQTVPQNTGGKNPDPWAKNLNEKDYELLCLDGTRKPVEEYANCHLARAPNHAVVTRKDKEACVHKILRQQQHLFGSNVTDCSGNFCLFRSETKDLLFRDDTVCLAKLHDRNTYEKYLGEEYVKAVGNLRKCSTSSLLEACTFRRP

In the case of `O=C(O)[C@@H](CO)OP(=O)(O)O` [D (+)-2 phosphoglyceric acid sodium salt], the “absorbance increase at 240 nm” value in series [1] is listed as “buffer lacking the specific substrate 2-PG”.

For `C=C(OP(=O)(O)O)C(=O)O` [sodium phosphoenol pyruvate], the “lactate dehydrogenase-coupled NADH oxidation at 340 nm” value in series [2] was “buffer lacking the specific substrate sodium phosphoenol pyruvate”. In series [3], “EC-H-GAPDH: recombinant M.tb H37Rv GAPDH with an N-terminal His tag, expressed in E. coli (from UniProt P9WN83 1-339) (enzyme)” gave a percent decrease of binding against MT-GAPDH-H (densitometry) of 70%. By Km is commonly meant the substrate concentration at which the rate is half of its maximum. In general, kcat refers to the number of substrate molecules converted per active site and unit of time at saturation. For “MT-GAPDH-H (M.tb rGAPDH) (Mycobacterium tuberculosis H37Rv)”, the figures for the Km (in the series on O=C[C@H](O)COP(=O)(O)O; in series [4]) were 169.6 ± 10.53 µM and 101.2 ± 8.9 µM, respectively. Besides, the catalytic constant (kcat) with O=C[C@H](O)COP(=O)(O)O stood at 0.00332 ± 0.0002 s⁻¹.
